Measured values from the RNAGym collection of RNA variant scans (doi:10.1073/pnas.2313332121).

B1: TPR t1 (parent)
chain: GACCAAUCUGCCCUCAGAGCUCGAGAACAUCUUCGGAUGCAGAGGAGGCAGGCUUCGGUGGCGCGAUAGCGCCAACGUCCUCAACCUCCAAUGCAUCCCACCACAUGAUGAUGCCUGAAGAGCCUUGGUUUUUUG

Variants of: B1
Experiment: polymerase ribozyme fitness, log enrichment relative to wild type (log ratio); higher = more active; in vitro selection for triplet polymerase activity
How it was run: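 Mutant libraries for each subunit of a heterodimeric triplet polymerase ribozyme were made by PCR and then transcribed. Each library underwent one round of in vitro selection in triplicate: annealing with a biotinylated primer, the partner subunit and triplets, frozen incubation at −7 °C, gel excision of extended constructs, streptavidin-bead capture and RT-PCR. Input and output libraries were Illumina-sequenced, and only genotypes with ≥10 input reads and ≥1 read per output were kept. Fitness is the logarithm, base 2, of genotype enrichment over wild-type enrichment, computed from inverse-variance-weighted replicate averages.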

Going from GACCAAUCUGCCCUCAGAGCUCGAGAACAUCUUCGGAUGCAGAGGAGGCAGGCUUCGGUGGCCCGAUAGCGCCAACGUCAUCAACCUCCAAUGCAUCCCACCACAUGAUGAUGCCUGAAGAGCCUUGGUUUUUUG [G63C C80A] to GACCAAUCUGCCCUCAGAGCUCGAGAACAUCUUCGGAUGCAGAGGAGGCAGGCUUCGGUGGCCCGAUAGCGCCAACGUCCUGAACCUCCAAUGCAUCCCACCACAUGAUGAUGCCUGAAGCGCCUUGCUUUUUUG [G63C C82G A121C G128C], the “polymerase ribozyme fitness (log ratio)” value rises from -3.71 to -1.24.

Going from GACCAAUCUGCCCUCAGAGCUCGAGAACAUCUUCGGAUGCAGAGGAGGCAGGCUUCGGUGGCACGAUAGCGCCAACGUCCUCAACCUCCAAUGCAUCCCACCACAUGAUGAUGCCUGAAGAGCCUUGGUUAUUUG [G63A U131A] to GACCAAUCUGCCCUCAGAGCUCGAGAACAUCUUCGGAUGCAGAGGAGGCAGGCUUCGGUGGCACGAUAGCGCCAACGUCCUCAACCUCCAAUGCAUCCCACCACAUGAUGAUGCCCGAAGAGUCUUGGUUUUUUG [G63A U116C C123U], the “polymerase ribozyme fitness (log ratio)” value falls from -1.11 to -4.18.

First: GACCAAUCUGCCCUCAGAGCUCGAGAACAUCUUCGGAUGCAGAGGAGGCAGGCUUCGGUGGCCCGAUAGCGCCAACGUCCUCAACCUCCAAUGCAUCCCACCACAUGAUGGUGCCUGAAGAGCCCUGGUUUUUUG [G63C A111G U125C]
Second: GACCAAUCUGCCCUCAGAGCUCGAGAACAUCUUCGGAUGCAGAGGAGGCAGGCUUCGGUGGCCCGAUAGCGCCAACGUCCUCAACCUCCAAUGAAUCCCACCACAUGAUGAAGCCAGAAGAGCCUUGGUUUUUUG [G63C C94A U112A U116A]
The “polymerase ribozyme fitness (log ratio)” value of the first is higher: -1.75 for the first, -2.14 for the second.

First: GACCAAUCUGCCCUCAGAGCUCGAGAACAUCUUCGGAUGCAGAGGAGGCAGGCUUCGGUGGCCCGAUAGCGCCAACGUCCUCUACCUCCAAUGCAUCCCACCACAUGAUGAUGCCUGAAGAGCCUUGGUUUUUUG [G63C A83U]
Second: GACCAAUCUGCCCUCAGAGCUCGAGAACAUCUUCGGAUGCAGAGGAGGCAGGCUUCGGUGGCCUGAUAGCGCCAACGUCCUCAACCUCCAAUGCAUCCCACCACAUGAUGAUGCCUGGAGAGCCUUGGUUUUGUG [G63C C64U A118G U133G]
The “polymerase ribozyme fitness (log ratio)” value of the first is higher: -1.48 for the first, -4.77 for the second.

First: GACCAAUCUGCCCUCAGAGCUCGAGAACAUCUUCGGAUGCAGAGGAGGCAGGCUUCGGUGGCCCGAUAGCGCCAACGUCCUCAACCUCCAAUGCAUCCCACCACUUGAUGAUGCCUGAAGAGCCUUGGUUUUUUG [G63C A105U]
Second: GACCAAUCUGCCCUCAGAGCUCGAGAACAUCUUCGGAUGCAGAGGAGGCAGGCUUCGGUGGCCCGAUAGCGGCAACGUCCUCAACCUCCAAUGCAUCCCACCACAUGAUGAUGCCUGAAGAGCCUUGGUUUUUUG [G63C C72G]
The “polymerase ribozyme fitness (log ratio)” value of the first is higher: -2.44 for the first, -5.46 for the second.

First: GACCAAUCUGCCCUCAGAGCUCGAGAACAUCUUCGGAUGCAGAGGAGGCAGGCUUCGGUGGCCCGAUAGCGCCAACGUCUUCAACCUCCAAUGCAUCCCACCACAUGAUGAUGCCUGCAAAGCCUUGGUUUUUUG [G63C C80U A118C G120A]
Second: GACCAAUCUGCCCUCAGAGCUCGAGAACAUCUUCGGAUGCAGAGGAGGCAGGCUUCGGUGGCCCGAUAGCGCCAACGUCCUCAACCUCCAAUGCAUCCCACCACAUGAUGCUGCCUGAAGCGCCUUGGUUUUUUG [G63C A111C A121C]
The “polymerase ribozyme fitness (log ratio)” value of the first is lower: -3.34 for the first, -0.162 for the second.

First: GACCAAUCUGCCCUCAGAGCUCGAGAACAUCUUCGGAUGCAGAGGAGGCAGGCUUCGGUGGCCCGAUAGCGCCAACGUCCUCAACCUCCAAUGCAUCCCACCACAUGAUGUUGCCUGAAGAACCUUGGUUUUUUG [G63C A111U G122A]
Second: GACCAAUCUGCCCUCAGAGCUCGAGAACAUCUUCGGAUGCAGAGGAGGCAGGCUUCGGUGGCCCGAUAGCGCCAGCGUCCUCAAACUCCAAUGCUUCCCCCCACAUGAUGAUGCGUGAAGAGCCUCGGUUUUUUG [G63C A75G C85A A95U A100C C115G U126C]
The “polymerase ribozyme fitness (log ratio)” value of the first is lower: -5.6 for the first, -5.24 for the second.

First: GACCAAUCUGCCCUCAGAGCUCGAGAACAUCUUCGGAUGCAGAGGAGGCAGGCUUCGGUGGCACGAUAGCGCCAACGUCCUCAACCUCCAAUGCAUCCCACCACAUGAUGAUGCCAGAAGAGCCUUGGUUUUUUG [G63A U116A]
Second: GACCAAUCUGCCCUCAGAGCUCGAGAACAUCUUCGGAUGCAGAGGAGGCAGGCUUCGGUGGCACGAUAGCGCCAACGUCCUCAACCUCCAAUGCAUCCCACCACAUGAUGAUGCCGGAAGAGCCUUGGUUUUUUG [G63A U116G]
The “polymerase ribozyme fitness (log ratio)” value of the first is lower: -3.92 for the first, -3.24 for the second.

First: GACCAAUCUGCCCUCAGAGCUCGAGAACAUCUUCGGAUGCAGAGGAGGCAGGCUUCGGUGGCCCGAUAGCGCCAACGUCCUCAAGCUCCAAUGCAUCCCACAACAUGAUGAUGCCUGAAGAGCCUUGGUUUUUUG [G63C C85G C102A]
Second: GACCAAUCUGCCCUCAGAGCUCGAGAACAUCUUCGGAUGCAGAGGAGGCAGGCUUCGGUGGCACGAUAGCGCCAACGUCCUCAACCUCCAAUGCAUCCCACCACAUGAUGAUGCCUGAAGAGCCUUGGUGUUUUG [G63A U130G]
The “polymerase ribozyme fitness (log ratio)” value of the first is lower: -2.51 for the first, -0.913 for the second.

Compared with GACCAAUCUGCCCUCAGAGCUCGAGAACAUCUUCGGAUGCAGAGGAGGCAGGCUUCGGUGGCACGAUAGCGCCAACGUCCUCAACCUCCAAUGCAUCCCACCACAUGAUGAUGCCUGAAGAGCCUUGGUCUUUUG [G63A U130C], GACCAAUCUGCCCUCAGAGCUCGAGAACAUCUUCGGAUGCAGAGGAGGCAGGCUUCGGUGGCCCGAUAGCGCCAACGUCCUCAGCCUCCAAUGAAUCCCACCACAUGAUGAUGCCUGAAGAGCCUUGGUUUUUUG [G63C A84G C94A] is lower in “polymerase ribozyme fitness (log ratio)” value: -0.399 for the first, -3.04 for the second.

With GACCAAUCUGCCCUCAGAGCUCGAGAACAUCUUCGGAUGCAGAGGAGGCAGGCUUCGGUGGCCCGAUAGCGCCAACGUCCUCAAGCCCCAAUGCAUCCCACCACAUGAUGAUGCCUGAAGAGCCUUGGUUUUUUG [G63C C85G U87C] the “polymerase ribozyme fitness (log ratio)” value was -2.82.
